For 1 molecule, Kd results are on record in patent US20150086562A1 (BIOATLA, published 2015).

In the test the target is T1, recombinant CD22 extracellular domain.
T1 construct: Kept apart from m18, which is cell-surface CD22; also called CD22 (analyte in the BIAcore runs); CD22 ECD
Description: The sheet does not state the method. The column 'KD (nM)' stands beside the confocal data, and the target form is taken from FIGURE 18. FIGURE 18 prints 0.25 for this clone. Here is the method:
BIAcore 3000, GE Healthcare was used to determine binding curves and kinetic parameters. An anti-human Fc (1.8 mg/ml) was diluted to a concentration of 50 ug/ml in NaOAc buffer (10 mM, pH 4.8) and coupled to the carboxymethylated dextran matrix of a CM-5 sensor chip using the manufacturer's amine-coupling chemistry as described in the BIAcore systems manual. Using the surface preparation wizard aiming for 10000RU, the carboxyl groups on the sensor surfaces were first activated with NHS/EDC followed by the addition of the anti-human Fc. The remaining activated groups were blocked by the injection of 1M ethanolamine. Each of the flow cells was coupled individually. Employing these conditions, the four flow cell surfaces containing 7554-9571 RU of anti-human Fc were prepared. In preliminary experiments, it was determine that three injections (15 ul at 30 ul/min) 100 mM H₃PO₄/0.05% CHAPS would efficiently remove the bound immunoglobulin and preserve the binding capacity of the immobilized anti-human Fc.
Experiments were performed on the BIAcore 3000 at 25° C. and a flow rate of 30 ul/min. […] Using the 1:1 model in BIAevaluation 4.1, both a local fit and global fit was done for both dissociation (kd, [s−1] and association (ka, [M⁻¹s⁻¹]) and the dissociation constant (KD, [M]) calculated (kd/ka).

B1: VM1011 (antibody, V domains shown)
VH: QVQLQESGPGLVKPSQTLSLTCTVSGYVFTSYWLHWIRQPPGKGLEWIGYINPRNDYTEYNRIFKGRVTITADKSTSTAYMELSSLRSEDTAVYYCARRGITTFYWGQG
VL: EIVLTQSPATLSLSPGERATLSCKSSQSVLYSAVEKNYLAWYQQKPGQAPRLLIYWASTRERGIPDRFSGSGSGTDFTLTISRLEPEDFAVYYCKQYLSSWTFGQG
notes: Humanized antibody with human constant region; also called anti-CD22 Mab clone VM1011
In general, Kd refers to the constant that tells how readily two partners part at equilibrium. In the case of B1, the Kd amounted to 0.26 nM.
